Test results published in US20250236653A1 (ONKO INNATE, published 2025).
Blank lines part the entries; values can stand above or below the binder they belong to.

Key:
human OX40 [1] = molecular target: T1, human OX40 (human, UniProt P43489 29-277); test: flow cytometry, monovalent fusion protein on hOX40-Jurkat-NF-κB cells
T1 construct: whole, on cells; also called hOX40
T1 sequence (looked up): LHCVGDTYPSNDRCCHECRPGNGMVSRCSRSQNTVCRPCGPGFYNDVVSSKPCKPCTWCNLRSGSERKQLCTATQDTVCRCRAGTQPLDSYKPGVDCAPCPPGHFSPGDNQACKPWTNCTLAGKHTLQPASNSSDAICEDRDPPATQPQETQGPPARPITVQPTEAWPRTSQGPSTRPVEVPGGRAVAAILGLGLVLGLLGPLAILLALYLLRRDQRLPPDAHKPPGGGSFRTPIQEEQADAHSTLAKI

cynomolgus monkey OX40 [2] = molecular target: T2, cynomolgus monkey OX40 (cynomolgus monkey); test: flow cytometry on cOX40-Jurkat-NF-κB cells
T2 construct: whole, on cells; also called cOX40; cynomolgus OX40

human OX40 [3] = molecular target: T1, human OX40; test: flow cytometry on hOX40-Jurkat-NF-κB cells
Procedure: (§1) Stained hOX40-Jurkat-NF-κB and cOX40-Jurkat-NF-κB cells were analyzed by flow cytometry using a CytoFLEX (Beckman Coulter), the results of which are depicted in FIGS. 78 and 79, respectively, and summarized in FIG. 80.
Binding of each of the sequence optimized IL-12 ABD fusion proteins to hOX40-Jurkat-NF-κB cells was performed as described in Example 16, the results of which are depicted in FIG. 87 and summarized in FIG. 88.

human OX40 [4] = molecular target: T1, human OX40; test: competition, flow cytometry: inhibition of 2.5 nM A647-labelled OX40L-Fc binding to hOX40-Jurkat-NF-κB cells
Procedure: To investigate whether any of BGB-A445, 20E5, or 12H3 competed with OX40L for the OX40 binding site, we assessed the capacity of these clones, either in traditional IgG1 monospecific, bivalent mAb format or as bispecific, monovalent IL-12 ABD fusion proteins, to block binding of OX40L to hOX40-Jurkat-NF-κB cells. For the experiment, 30,000 hOX40-Jurkat-NF-κB cells were pre-incubated with 0-450 nM mAb or IL-12 ABD fusion protein for 10 minutes on ice prior to being stained for an additional 10 minutes on ice with 2.5 nM OX40L-Fc (Sino Biological, catalogue number 13127-H01H) that had been coupled to an A647 fluorophore using a Zenon Human IgG labelling kit (Invitrogen, catalogue number Z25408). Stained hOX40-Jurkat-NF-κB cells were analyzed by flow cytometry, and are depicted as percentage of OX40L-Fc positive cells within the OX40 positive gate (defined using a non-competing anti-OX40 mAb (clone Ber-ACT35, BioLegend catalogue number 350012) in FIG. 89.

cynomolgus monkey OX40 [5] = molecular target: T2, cynomolgus monkey OX40; test: flow cytometry on cOX40-Jurkat-NF-κB cells, as in Example 16
Procedure: as §1
(§2) Sequences for the VH and VL domains of an additional anti-human OX40 antibody (clone 41) are provided in FIG. 112 (SEQ ID NOs: 170 and 171, respectively). To investigate whether clone 41 would be suitable for use within IL-12 ABD fusion proteins, this antibody was recombinantly expressed in bivalent human IgG1 format (termed ‘hG1-clone 41’) and subjected to protein A purification. […] Next, hG1-clone 41 was assessed for its capacity to block the binding of OX40L to hOX40-Jurkat-NF-κB cells, as described in Example 19. […] The capacity of hG1-clone 41 to block OX40L-induced signaling in hOX40-Jurkat-NF-κB cells was also assessed using a similar experimental setup as described in Example 20, the results of which are depicted in FIG. 117. […] Finally, the capacity of hG1-clone 41 to trigger OX40 signaling was assessed in hOX40-Jurkat-NF-κB cells, as described in Example 25.

human OX40 [6] = molecular target: T1, human OX40; test: flow cytometry on hOX40-Jurkat-NF-κB cells, as in Example 16
Procedure: as §1, §2

binding result (human OX40 [1]): binds
fold difference of EC50 against hOX40-Jurkat-NF-κB cells (cynomolgus monkey OX40 [2]): ≤ 2 fold
B1: mono-mut23-20E5 (Fc fusion)
chain: IWELKKDVYVVELDWYPDAPGEMVVLTCDTPEEDGITWTLDQSSEVLGSGKTLTIQVKEFGDAGQYTCHKGGEVLSHSLLLLHKKEDGIWSTDILKDQKEPKNKTFLRCEAKNYSGRFTCWWLTTISTDLTFSVKSSRGSSDPQGVTCGAATLSAERVRGDNKEYEYSVECQEDSACPAAEESLPIEVMVDAVHKLKYENYTSSFFIRDIIKPDPPKNLQLKPLKNSRQVEVSWEYPDTWSTPHSYFSLTFSVQVQGKSKREKKDRVFTDKTSATVICRKNASISVRAQDRYYSSSWSEWASVPCSGGGGSGGGGSGGGGSGGGGSGGGGSRNLPVATPDPGMFPCLHHSQNLLRAVSNMLQKARQTLEFSPCTSEEIDHEDITKDKTSTVEACLPLELTKNESCLNSRETSFITNGSCLASRKTSFMMALCLSSIYEDLKMYQVEFKTMNAKLLMDPKRQIFLDQNMLAVIDELMQALNFNSETVPQKSSLEEPDFYKTAIKLCILLHAFRIRAVTIDRVMSYLNASGGGGSGGGGSEPKSSDKTHTCPPCPAPEFEGGPSVFLFPPKPKDTLMISRTPEVTCVVVDVSHEDPEVKFNWYVDGVEVHNAKTKPREEQYNSTYRVVSVLTVLHQDWLNGKEYKCKVSNKALPASIEKTISKAKGQPREPQVCTLPPSRDELTKNQVSLSCAVKGFYPSDIAVEWESNGQPENNYKTTPPVLDSDGSFFLVSKLTVDKSRWQQGNVFSCSVMHEALHNHYTQKSLSLSPG
heavy: QVQLVQSGAEVKKPGASVKVSCKASGYTFTSYVMHWVRQAPGQRLEWIGYINPYNDGTKYNEKFKGRATLTSDKSASTAYMELSSLRSEDTAVYYCANYYGSSLSMDYWGQGTLVTVSSASTKGPSVFPLAPSSKSTSGGTAALGCLVKDYFPEPVTVSWNSGALTSGVHTFPAVLQSSGLYSLSSVVTVPSSSLGTQTYICNVNHKPSNTKVDKKVEPKSCDKTHTCPPCPAPEFEGGPSVFLFPPKPKDTLMISRTPEVTCVVVDVSHEDPEVKFNWYVDGVEVHNAKTKPREEQYNSTYRVVSVLTVLHQDWLNGKEYKCKVSNKALPASIEKTISKAKGQPREPQVYTLPPCRDELTKNQVSLWCLVKGFYPSDIAVEWESNGQPENNYKTTPPVLDSDGSFFLYSKLTVDKSRWQQGNVFSCSVMHEALHNHYTQKSLSLSPG
light: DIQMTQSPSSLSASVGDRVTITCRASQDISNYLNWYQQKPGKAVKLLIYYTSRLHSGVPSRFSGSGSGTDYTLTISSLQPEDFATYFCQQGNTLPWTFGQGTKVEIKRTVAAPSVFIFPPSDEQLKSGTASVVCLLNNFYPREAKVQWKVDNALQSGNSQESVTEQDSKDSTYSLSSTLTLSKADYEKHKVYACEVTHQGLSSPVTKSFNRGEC
notes: Monovalent for OX40

fold difference of EC50 against hOX40-Jurkat-NF-κB cells (cynomolgus monkey OX40 [2]): ≤ 2 fold
EC50 (human OX40 [3]): 13.6 nM
IC50 (human OX40 [4]): 227 nM
B2: mono-mut23-12H3 (Fc fusion)
chain: B1 chain
heavy: QVQLVQSGAEVKKPGSSVKVSCKASGYTFKDYTMHWVRQAPGQGLEWIGGIYPNNGGSTYNQNFKDRVTLTADKSTSTAYMELSSLRSEDTAVYYCARMGYHGPHLDFDVWGQGTTVTVSSASTKGPSVFPLAPSSKSTSGGTAALGCLVKDYFPEPVTVSWNSGALTSGVHTFPAVLQSSGLYSLSSVVTVPSSSLGTQTYICNVNHKPSNTKVDKKVEPKSCDKTHTCPPCPAPEFEGGPSVFLFPPKPKDTLMISRTPEVTCVVVDVSHEDPEVKFNWYVDGVEVHNAKTKPREEQYNSTYRVVSVLTVLHQDWLNGKEYKCKVSNKALPASIEKTISKAKGQPREPQVYTLPPCRDELTKNQVSLWCLVKGFYPSDIAVEWESNGQPENNYKTTPPVLDSDGSFFLYSKLTVDKSRWQQGNVFSCSVMHEALHNHYTQKSLSLSPG
light: DIQMTQSPSSLSASVGDRVTITCKASQDVGAAVAWYQQKPGKAPKLLIYWASTRHTGVPSRFSGSGSGTDFTLTISSLQPEDFATYYCQQYINYPLTFGGGTKVEIKRTVAAPSVFIFPPSDEQLKSGTASVVCLLNNFYPREAKVQWKVDNALQSGNSQESVTEQDSKDSTYSLSSTLTLSKADYEKHKVYACEVTHQGLSSPVTKSFNRGEC
notes: Monovalent for OX40

EC50 (cynomolgus monkey OX40 [5]): 1 nM
EC50 (human OX40 [6]): 1.1 nM
B3: hG1-clone 41 (antibody, V domains shown)
VH: QVQLVESGGGVVQPGRSLRLSCAASGFTFSSYGMHWVRQAPGKGLEWVALISYDGSNKIYTDSVKGRFTISRDNSKNTLYLQMNSLRPEDTAVYYCAKGREIVATYFDYWGQGTLVTVSS
VL: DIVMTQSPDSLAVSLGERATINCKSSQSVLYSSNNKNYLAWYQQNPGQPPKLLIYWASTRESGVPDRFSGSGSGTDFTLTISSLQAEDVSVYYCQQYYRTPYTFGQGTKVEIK
notes: Recombinantly expressed in bivalent human IgG1 format
